Test results reported in the supplement of paper PMC10567573.

B1: DCTD (parent)
chain: VKGCSMYVALFPCNECAKLIIQAG
B2: TRIM35 (parent)
chain: PTCPVCKDRASPADLRTNHTLNNL

Variants of: B1
Assay: protein stability index of a GFP-peptide fusion (GPS, HEK-293T) (PSI 1-6); higher = more stable
Conditions: c terminus: a fixed tail appended
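Note: lentivirally expressed fusions sorted by FACS into six bins by GFP to DsRed ratio, PSI derived from sequencing read proportions per bin multiplied by bin number.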

Protein stability index, by site and new letter:
P12: N 3.57 | Q 1.81 | R 2.9 | V 4.55 | T 2.86 | G 2.57
I20: H 2.4
L19: D 2.4 | W 2.99 | F 3.88 | E 5.26 | M 2.14 | T 2.23 | C 3.04
S5: Y 1.87 | H 3.63 | E 3.58 | W 3.75 | P 3.12 | D 2.2 | K 2.44 | N 2.91 | F 2.58 | M 1.55 | C 1.73
L10: S 2.2 | P 3.06 | Q 3.35 | A 2.48
G24: K 1.76 | H 3.84 | A 2 | E 2.98 | V 2.98 | T 3.17 | N 2.86
K18: I 1.99 | V 4.91 | C 4.05 | H 2.55 | S 4.23 | L 1.05 | W 1
I21: S 2.24 | D 3.77 | V 2.14 | L 1.76 | W 2.72 | E 1.31 | T 1.83
A9: G 3.16 | C 2.79 | F 3.38 | W 1.94 | L 3.68
C16: K 5.31 | N 5.28 | M 3.57
F11: D 4.47 | C 3.11 | S 2.83 | Y 2.95
Q22: P 2.51 | E 3.39
M6: R 1.58 | Y 2.7 | S 2.46 | A 3.35 | N 2.2 | I 3.81 | C 2.7 | L 4.51 | T 2.33 | D 1.7 | H 2.21 | Q 3.17 | E 2.2
N14: K 1.92 | F 2.99 | M 2.9 | P 2.04
C4: T 2.88 | V 2.86 | S 3.15
A17: Q 3.48 | I 3.08 | N 3.32 | H 3.41 | T 3.02
C13: P 1.7 | E 2.59
Y7: C 2.84 | M 4.09 | A 2.65 | H 1.78 | W 2.92 | L 4.45 | D 1.68 | T 1.91 | I 3.49 | F 2.5
V8: A 2.64 | N 1.49 | L 1.94 | C 1.9 | Q 4.51 | K 3.21 | P 2.22 | M 2.92 | Y 3.08 | H 2.37 | T 2.19 | G 1.28 | S 2.3 | W 1.9 | E 1.75 | F 3.62 | D 1.62
A23: G 2.31 | E 2.7 | L 5.75 | P 2.84
E15: N 2.17 | Q 2.62 | G 3.97 | V 1.31 | I 3.06 | W 4.68 | H 3.15

Variants of: B2
Assay: as above
Conditions: c terminus: a fixed tail appended

Protein stability index, by site and new letter:
P4: G 2.71 | V 3.19 | C 2.79 | I 2.72 | R 3.38 | Y 3.01 | E 3.42 | L 3.32 | N 3.26 | F 2.73 | A 2.72 | M 3.16 | K 3.21 | W 2.58 | H 3.03 | D 3.71 | Q 3.28 | T 3.3 | S 2.98
T2: E 3.47 | C 2.9 | F 2.33 | Y 2.3 | Q 3.27 | S 3.24 | H 2.82 | N 3.26 | I 2.71 | A 3.67 | M 3.14 | R 3.12 | P 3.58 | K 3.52 | D 3.68 | L 2.79 | G 2.95 | W 2.2 | V 3.82
A10: H 3.23 | G 2.88 | M 2.72 | F 2.96 | N 2.78 | K 3.05 | I 3.05 | C 2.03 | V 2.45 | Q 3.01 | Y 2.56 | W 2.22 | S 2.86 | P 3.17 | T 2.96 | D 3.34 | R 3.03 | E 3.33 | L 1.96
C3: H 3.84 | S 4.55 | D 4.75 | Q 4.24 | T 4.36 | W 3.89 | P 4.02 | R 4.46 | E 4.06 | A 4.44 | Y 3.24 | N 4.05 | F 3.79 | I 4.38 | M 4.08 | L 4.28 | K 4 | V 4.1 | G 4.3
C6: M 4.22 | V 4.22 | T 4.44 | W 3.21 | K 4.31 | Y 4.1 | R 4.05 | F 3.84 | Q 4.28 | D 4.74 | H 4.11 | I 3.59 | A 4.55 | G 4.12 | E 4.64 | P 4.09 | L 3.86 | S 4.39 | N 4.2
R9: S 3.5 | V 2.9 | M 2.97 | Q 3.55 | K 3.16 | F 3.11 | W 3.11 | L 3.07 | P 3.71 | N 3.12 | T 3.5 | C 2.97 | H 3.66 | A 2.98 | E 3.62 | Y 3.08 | I 2.96 | G 3.66 | D 3.99
K7: T 2.72 | A 3.19 | V 3.45 | G 2.72 | H 3.13 | M 2.87 | E 3.88 | I 3.18 | S 2.68 | N 3.13 | P 4.04 | Q 3.37 | D 3.65 | F 2.94 | L 2.91 | R 2.72 | C 2.68 | Y 2.72 | W 2.84
S11: N 2.86 | R 2.72 | M 3.1 | I 2.97 | A 3.3 | Q 3.07 | P 3.19 | E 3.51 | L 3.07 | C 3.74 | F 2.55 | G 2.94 | K 3.32 | H 2.92 | D 3.44
D8: Y 2.02 | C 2.09 | A 1.94 | K 2.31 | E 2.75 | R 2.02 | L 2.36 | T 2.67 | S 2.45 | F 1.71 | G 3.11 | P 2.83 | W 2.32 | N 2.65 | H 2.61 | M 1.92 | V 2.39 | I 2.65 | Q 3
P1: L 2.62 | K 2.82 | T 2.99 | A 2.64 | Q 2.7 | R 2.56 | D 3.2 | F 2.11 | I 2.63 | C 3.87 | V 2.85 | M 2.62 | S 2.8 | Y 2.47 | W 1.6 | G 2.17 | H 2.95 | E 2.75 | N 2.41
V5: R 2.87 | Y 1.91 | L 2.47 | C 3.15 | A 3.33 | F 2.04 | G 3.7 | I 2.69 | P 4.71 | K 3.59 | Q 3.38 | N 3.3 | T 3.19 | M 2.76 | D 4.16 | S 3.43 | W 2.78 | E 3.65 | H 2.36
